Measured values from US20260166140A1, “Combinations Involving Epidermal Growth Factor Receptor Tyrosine Kinase Inhibitors For the Treatment of Cancer” (AstraZeneca AB, priority 2022, published 2026).
Where a chain is given by its changes, count along the chain named.

T1: HER4 (UniProt Q15303 26-649, limits assumed)
T1 construct: also called EGFR HER family protein HER4
T1 sequence (looked up): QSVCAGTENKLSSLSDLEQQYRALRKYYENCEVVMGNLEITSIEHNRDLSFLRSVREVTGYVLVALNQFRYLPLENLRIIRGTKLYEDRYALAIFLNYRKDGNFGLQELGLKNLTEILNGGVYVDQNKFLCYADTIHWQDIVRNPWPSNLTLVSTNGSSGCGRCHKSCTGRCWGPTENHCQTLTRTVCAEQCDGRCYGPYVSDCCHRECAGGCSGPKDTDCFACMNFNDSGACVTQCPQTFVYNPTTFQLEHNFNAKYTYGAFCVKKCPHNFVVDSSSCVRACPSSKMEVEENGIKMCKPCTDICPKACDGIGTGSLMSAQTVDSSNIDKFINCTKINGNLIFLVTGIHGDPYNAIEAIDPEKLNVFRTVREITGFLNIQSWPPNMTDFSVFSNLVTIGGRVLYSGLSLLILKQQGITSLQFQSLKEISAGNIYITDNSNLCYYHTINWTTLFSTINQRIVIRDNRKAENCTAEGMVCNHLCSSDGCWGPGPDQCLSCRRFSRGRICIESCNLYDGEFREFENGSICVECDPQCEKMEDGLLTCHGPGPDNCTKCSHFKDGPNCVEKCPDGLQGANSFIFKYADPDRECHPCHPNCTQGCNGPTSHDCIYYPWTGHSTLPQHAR

T2: Semaphorin 3a (UniProt Q14563 21-771, limits assumed)
T2 construct: also called Sema 3a
T2 sequence (looked up): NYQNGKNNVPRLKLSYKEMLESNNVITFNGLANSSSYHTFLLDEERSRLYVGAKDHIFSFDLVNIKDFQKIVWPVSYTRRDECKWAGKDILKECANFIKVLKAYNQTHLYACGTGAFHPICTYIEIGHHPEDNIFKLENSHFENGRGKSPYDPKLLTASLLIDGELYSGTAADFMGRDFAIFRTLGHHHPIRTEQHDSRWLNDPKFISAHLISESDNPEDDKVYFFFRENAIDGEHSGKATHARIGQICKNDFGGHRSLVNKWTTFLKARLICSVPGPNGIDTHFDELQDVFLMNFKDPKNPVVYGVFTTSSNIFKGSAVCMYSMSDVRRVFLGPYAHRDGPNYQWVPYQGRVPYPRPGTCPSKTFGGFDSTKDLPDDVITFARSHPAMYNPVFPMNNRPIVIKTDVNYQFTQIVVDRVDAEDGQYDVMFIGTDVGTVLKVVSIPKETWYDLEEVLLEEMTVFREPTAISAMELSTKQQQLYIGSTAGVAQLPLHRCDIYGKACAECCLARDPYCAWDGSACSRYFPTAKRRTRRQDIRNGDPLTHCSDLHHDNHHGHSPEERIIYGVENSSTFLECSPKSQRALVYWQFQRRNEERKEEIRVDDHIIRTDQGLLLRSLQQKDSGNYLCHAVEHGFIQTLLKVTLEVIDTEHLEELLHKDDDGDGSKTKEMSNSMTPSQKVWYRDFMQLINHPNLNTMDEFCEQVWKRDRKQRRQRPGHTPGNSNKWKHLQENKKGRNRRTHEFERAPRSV

B1: RAA22/B09-57 DuetMab (bispecific antibody, human IgG1, kappa, lambda)
heavy 1: QVQLVQSGAEVKKPGSSVKVSCKASGGTFSDNDFSWVRQAPGQGLEWMGAIVAVFRTETYAQKFQDRVKITADISTRTTYMELSSLRSEDTAVYYCARRLMSAISGPGAPLLMWGQGTLVTVSSASTKGPSVFPLAPSSKSTSGGTAALGCLVKDYFPEPVTVSWNSGALTSGVHTFPAVLQSSGLYSLSSVVTVPSSSLGTQTYICNVNHKPSNTKVDKRVEPKSCDKTHTCPPCPAPELLGGPSCVFLFPPKPKDTLMISRTPEVTCVVVDVSHEDPEVKFNWYVDGVEVHNAKTKPREEQYNSTYRVVSVLTVLHQDWLNGKEYKCKVSNKALPAPIEKTISKAKGQPREPQVCTLPPSREEMTKNQVSLSCAVKGFYPSDIAVEWESNGQPENNYKTTPPVLDSDGSFFLVSKLTVDKSRWQQGNVFSCSVMHEALHNHYTQKSLSLSPGK
heavy 2: QVQLVQSGAEVKKPGASVKVSCKASGYTFTDYYIHWVRQATGQGLEWMGWMNPNSGNTGYAQKFQGRVTMTRDTSISTAYMELSSLRSEDTAVYYCARGQGYTHSWGQGTMVTVSSASTKGPSVCPLAPSSKSTSGGTAALGCLVKDYFPEPVTVSWNSGALTSGVHTFPAVLQSSGLYSLSSVVTVPSSSLGTQTYICNVNHKPSNTKVDKRVEPKSVDKTHTCPPCPAPELLGGPSCVFLFPPKPKDTLMISRTPEVTCVVVDVSHEDPEVKFNWYVDGVEVHNAKTKPREEQYNSTYRVVSVLTVLHQDWLNGKEYKCKVSNKALPAPIEKTISKAKGQPREPQVYTLPPCREEMTKNQVSLWCLVKGFYPSDIAVEWESNGQPENNYKTTPPVLDSDGSFFLYSKLTVDKSRWQQGNVFSCSVMHEALHNHYTQKSLSLSPG
light 1: QSALTQPRSVSGSPGQSVTISCTGTSSDVGGYNYVSWYQQHPGKAPKLMIYDVSKRPSGVPDRFSGSKSGNTASLTISGLQAEDEADYYCSSYTSSDTLEIFGGGTKLTVLGQPKAAPSVTLFPPSSEELQANKATLVCLISDFYPGAVTVAWKADSSPVKAGVETTTPSKQSNNKYAASSYLSLTPEQWKSHRSYSCQVTHEGSTVEKTVAPTECS
light 2: DIQMTQSPSTLSASVGDRVTITCRASEGIYHWLAWYQQKPGKAPKLLIYKASSLASGVPSRFSGSGSGTEFTLTISSLQPDDFATYYCQQYSNYPPTFGGGTKLEIKRTVAAPSVFIFPPCDEQLKSGTASVVCLLNNFYPREAKVQWKVDNALQSGNSQESVTEQDSKDSTYSLSSTLTLSKADYEKHKVYACEVTHQGLSSPVTKSFNRGEV
notes: also called monovalent bispecific EGFR/cMET DuetMAb RAA22/B09; RAA22/B09-Maia
B2: QD6/B09-57 DuetMab (bispecific antibody, human IgG1, kappa, lambda)
heavy 1: B1 heavy 1 with F55V
heavy 2: B1 heavy 2
light 1: B1 light 1 with K55E, S91F
light 2: B1 light 2
notes: also called monovalent bispecific EGFR/cMET DuetMAb QD6/B09

Tests used:
Cynomolgus monkey EGFR = test: SPR (BIAcore T200) antibody capture kinetics; type: binding; conditions: 25° C.
Experimental: (§1) Mouse anti-human IgG was immobilized on a CM4 sensor chip with a final surface density of ˜2000 resonance units (RUs). A reference flow cell surface was also prepared on this sensor chip using identical immobilization protocol. Test and control article antibodies were prepared at 5-20 nM in instrument buffer (HBS-EP buffer; 0.01M HEPES, pH 7.4, 0.15M NaCl, 3 mM EDTA, and 0.005% P-20), along with 3-fold serial dilutions of purified EGFR (0.27-200 nM human, 0.4-900 nM cyno, and 4-1000 nM murine) or cMET proteins (0.27 to 66 nM human and 0.27-22 nM cyno) in instrument buffer. A sequential approach was utilized for kinetic measurements. Antibodies were first injected over the capture surface, at a flow rate of 10 μL/minute. Once the binding of the captured antibody stabilized, a single concentration of the analyte was injected over both capture and reference surfaces, at a flow rate of 75 μL/minute. The resulting binding response curves yielded the association phase data. Following the injection of analyte, the flow was then switched back to instrument buffer for 15 minutes to permit the collection of dissociation phase data, followed by a 1-minute pulse of 10 mM glycine, pH 1.5, to regenerate the antibody-captured surface on the chip. Binding responses against test and control article antibodies were recorded from duplicate injections of each concentration of analyte. In addition, several buffer injections were interspersed throughout the injection series. Select buffer injections were used along with the reference cell responses to correct the raw data sets for injection artifacts and/or nonspecific binding interactions, commonly referred to as “double referencing”. Corrected binding data were globally fit to a 1:1 binding model (Biacore T200 Evaluation software 2.0, GE Healthcare, Pittsburgh, PA).

Cynomolgus monkey cMET = test: SPR (BIAcore T200) antibody capture kinetics; type: binding; conditions: 25° C.
Experimental: as §1

Human EGFR = Human EGFR (Homo sapiens, UniProt P00533); test: SPR (BIAcore T200) antibody capture kinetics; type: binding; conditions: for Koff / Kon: 25° C.; for Kon: 1:1 binding model
Experimental: as §1

Human cMET = Human cMET (Homo sapiens, UniProt P08581); test: SPR (BIAcore T200) antibody capture kinetics; type: binding; conditions: for Koff / Kon: 25° C.
Experimental: as §1

Mouse EGFR = biological target: T3, Mouse EGFR (Mus musculus, UniProt Q01279); test: SPR (BIAcore T200) antibody capture kinetics; type: binding; conditions: for Koff / Kon: 25° C.
T3 construct: purchased SinoBiological 51091-M08H
Experimental: as §1

Mouse cMET (recombinant) = Mouse cMET (recombinant) (mouse, UniProt P16056 25-929, limits assumed); test: ELISA: antigen coated at 1 ug/mL, antibody dilution series, goat anti-human Fab-HRP, A450; panel Mouse cMET
Experimental: Specificity for EGFR and cMET species paralogs and closely related family members was determined by ELISA. Briefly, antigen solutions were prepared in PBS at 1 μg/mL and 50 microliters was coated onto half area ELISA assay plates. Plates were washed and blocked with 1% BSA in PBS containing 0.005% Tween-20 (PBS-T) for one hour at room temperature. […] The wells were washed 4 times in PBS-T, then 50 μl of goat anti-human Fab HRP-labeled secondary antibody, diluted 1:5000 in PBS-T, was added to each well and incubated for one hour at room temperature. […] 50 microliters of TMB stop solution was added to all wells and the absorbance was read at 450 nm on a SpectraMax M5 microplate reader.
To determine the species cross reactivity, ELISA assays were carried out as described above.

HER3 = biological target: T4, HER3 (UniProt P21860 20-643, limits assumed); test: ELISA: antigen coated at 1 ug/mL, antibody dilution series, goat anti-human Fab-HRP, A450; panel Human HER3
T4 construct: also called EGFR HER family protein HER3

HER4 = biological target: T1, HER4; test: ELISA: antigen coated at 1 ug/mL, antibody dilution series, goat anti-human Fab-HRP, A450; panel Human HER4
Semaphorin 3a = biological target: T2, Semaphorin 3a; test: ELISA: antigen coated at 1 ug/mL, antibody dilution series, goat anti-human Fab-HRP, A450; panel Human Sema3a
Ron (CD136) = Ron (CD136) (UniProt Q04912 25-957, limits assumed); test: ELISA: antigen coated at 1 ug/mL, antibody dilution series, goat anti-human Fab-HRP, A450; panel Human Ron (CD136)

Sequence of Human cMET (P08581 25-932): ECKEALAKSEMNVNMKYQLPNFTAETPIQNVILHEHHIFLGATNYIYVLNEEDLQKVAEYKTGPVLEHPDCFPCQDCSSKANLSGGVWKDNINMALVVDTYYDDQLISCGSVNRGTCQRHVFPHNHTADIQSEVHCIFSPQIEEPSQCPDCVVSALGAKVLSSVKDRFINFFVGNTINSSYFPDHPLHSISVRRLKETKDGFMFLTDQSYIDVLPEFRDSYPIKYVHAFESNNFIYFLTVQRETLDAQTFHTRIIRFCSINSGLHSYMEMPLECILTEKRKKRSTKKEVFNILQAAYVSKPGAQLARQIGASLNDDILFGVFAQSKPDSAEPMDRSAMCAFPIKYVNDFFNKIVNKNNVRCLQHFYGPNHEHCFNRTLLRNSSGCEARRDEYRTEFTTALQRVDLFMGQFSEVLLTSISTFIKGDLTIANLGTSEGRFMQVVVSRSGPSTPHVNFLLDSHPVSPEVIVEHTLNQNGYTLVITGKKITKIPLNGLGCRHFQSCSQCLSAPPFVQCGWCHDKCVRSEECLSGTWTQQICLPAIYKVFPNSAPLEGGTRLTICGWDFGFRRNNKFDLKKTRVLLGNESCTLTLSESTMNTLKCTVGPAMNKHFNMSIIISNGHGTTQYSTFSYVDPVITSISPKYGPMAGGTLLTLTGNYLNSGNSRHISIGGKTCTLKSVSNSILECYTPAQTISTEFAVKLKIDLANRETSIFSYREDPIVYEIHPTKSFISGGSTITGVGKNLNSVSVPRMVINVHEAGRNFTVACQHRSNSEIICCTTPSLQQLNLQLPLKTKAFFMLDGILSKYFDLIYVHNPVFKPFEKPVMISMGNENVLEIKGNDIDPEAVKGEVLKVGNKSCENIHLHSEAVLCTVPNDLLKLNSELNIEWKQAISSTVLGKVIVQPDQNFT
Sequence of Cynomolgus monkey cMET (as listed by the source): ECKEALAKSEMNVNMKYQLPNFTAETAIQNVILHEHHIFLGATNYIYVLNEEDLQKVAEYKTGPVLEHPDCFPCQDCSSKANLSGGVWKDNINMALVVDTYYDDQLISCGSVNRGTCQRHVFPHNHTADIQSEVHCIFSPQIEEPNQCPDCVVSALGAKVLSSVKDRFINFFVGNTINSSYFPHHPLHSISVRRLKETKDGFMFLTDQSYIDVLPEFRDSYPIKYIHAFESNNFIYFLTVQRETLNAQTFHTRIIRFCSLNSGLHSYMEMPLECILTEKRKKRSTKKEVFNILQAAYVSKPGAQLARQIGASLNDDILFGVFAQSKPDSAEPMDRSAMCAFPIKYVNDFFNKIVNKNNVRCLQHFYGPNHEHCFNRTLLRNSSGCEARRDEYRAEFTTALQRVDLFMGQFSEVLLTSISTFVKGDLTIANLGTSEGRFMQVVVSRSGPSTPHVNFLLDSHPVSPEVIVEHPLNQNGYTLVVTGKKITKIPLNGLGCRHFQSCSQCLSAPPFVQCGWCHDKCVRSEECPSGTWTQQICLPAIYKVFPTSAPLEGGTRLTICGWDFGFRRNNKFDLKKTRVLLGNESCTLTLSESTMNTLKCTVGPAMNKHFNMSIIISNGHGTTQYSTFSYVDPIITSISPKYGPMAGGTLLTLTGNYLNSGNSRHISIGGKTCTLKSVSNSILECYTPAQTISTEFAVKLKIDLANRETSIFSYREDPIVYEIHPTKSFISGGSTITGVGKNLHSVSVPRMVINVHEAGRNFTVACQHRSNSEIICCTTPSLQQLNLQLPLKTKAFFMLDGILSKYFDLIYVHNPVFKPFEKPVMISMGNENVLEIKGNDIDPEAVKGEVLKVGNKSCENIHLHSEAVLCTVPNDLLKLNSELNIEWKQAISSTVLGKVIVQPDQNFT
Sequence of Mouse cMET (recombinant) (P16056 25-929 limits assumed): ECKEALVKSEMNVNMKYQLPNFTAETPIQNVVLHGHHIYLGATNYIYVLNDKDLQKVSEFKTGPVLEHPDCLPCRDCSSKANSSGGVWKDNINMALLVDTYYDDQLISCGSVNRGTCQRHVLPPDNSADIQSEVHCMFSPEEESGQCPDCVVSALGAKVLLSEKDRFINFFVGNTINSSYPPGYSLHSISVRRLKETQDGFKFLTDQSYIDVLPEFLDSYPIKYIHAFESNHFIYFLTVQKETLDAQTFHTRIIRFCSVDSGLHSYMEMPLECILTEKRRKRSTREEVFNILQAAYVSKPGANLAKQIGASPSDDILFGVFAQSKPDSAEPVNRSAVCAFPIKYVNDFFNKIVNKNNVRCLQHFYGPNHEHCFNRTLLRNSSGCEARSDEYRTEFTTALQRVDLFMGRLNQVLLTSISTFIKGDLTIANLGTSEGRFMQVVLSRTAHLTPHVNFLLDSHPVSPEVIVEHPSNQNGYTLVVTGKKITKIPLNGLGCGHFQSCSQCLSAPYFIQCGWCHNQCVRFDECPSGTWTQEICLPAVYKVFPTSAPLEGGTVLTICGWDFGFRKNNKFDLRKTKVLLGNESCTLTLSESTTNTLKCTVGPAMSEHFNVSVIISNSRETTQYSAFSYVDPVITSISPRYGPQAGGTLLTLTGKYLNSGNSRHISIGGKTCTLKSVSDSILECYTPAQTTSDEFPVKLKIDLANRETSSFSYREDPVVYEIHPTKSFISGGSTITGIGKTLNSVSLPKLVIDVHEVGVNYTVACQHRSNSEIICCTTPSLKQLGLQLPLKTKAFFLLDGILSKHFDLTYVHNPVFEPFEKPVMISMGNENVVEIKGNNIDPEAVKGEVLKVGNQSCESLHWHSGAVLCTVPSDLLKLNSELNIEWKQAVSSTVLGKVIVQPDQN

Row | Molecule | Koff (Cynomolgus monkey EGFR) | Kon (Cynomolgus monkey EGFR) | Koff (Cynomolgus monkey cMET) | Kon (Cynomolgus monkey cMET) | Koff (Human EGFR) | Kon (Human EGFR) | Koff (Human cMET) | Kon (Human cMET) | Kd (Human cMET; koff/kon) | Koff (Mouse EGFR) | Kon (Mouse EGFR) | binding result (Mouse cMET (recombinant)) | binding result (HER3) | binding result (HER4) | binding result (Semaphorin 3a) | binding result (Ron (CD136)) | Kd (Human EGFR; KD calculated as koff/kon) | Kd (Mouse EGFR; koff/kon)
1 | B1 | 0.00548 s⁻¹ | 27800 M⁻¹ s⁻¹ | 0.00212 s⁻¹ | 974000 M⁻¹ s⁻¹ | 0.00201 s⁻¹ | 44700 M⁻¹ s⁻¹ | 0.000986 s⁻¹ | 443000 M⁻¹ s⁻¹ | ~2 nM | 0.0206 s⁻¹ | 35400 M⁻¹ s⁻¹ | no binding (tested: 10 ug/ml) | no binding (tested: 10 ug/ml) | no binding (tested: 10 ug/ml) | no binding (tested: 10 ug/ml) | no binding (tested: 10 ug/ml) | – | –
2 | B2 | 0.000585 s⁻¹ | 210000 M⁻¹ s⁻¹ | 0.00206 s⁻¹ | 958000 M⁻¹ s⁻¹ | 0.000374 s⁻¹ | 63500 M⁻¹ s⁻¹ | 0.000696 s⁻¹ | 425000 M⁻¹ s⁻¹ | – | 0.00078 s⁻¹ | 126000 M⁻¹ s⁻¹ | no binding (tested: 10 ug/ml) | no binding (tested: 10 ug/ml) | no binding (tested: 10 ug/ml) | no binding (tested: 10 ug/ml) | – | ~6 nM | ~6 nM
